Kd data for 1 molecule are collected here from PMC12499416, “ATF3 Deficiency Exacerbates Ageing‐Induced Atherosclerosis and Clinical Intervention Strategy” (Advanced Science, 2025).

For the assay, the target named is T1, ATG7 (analyte of the surface plasmon resonance assay) (UniProt Q9D906 1-698).
T1 construct: ATG7 used for surface plasmon resonance; Source of the protein may stand in the Supporting Information
T1 sequence (looked up): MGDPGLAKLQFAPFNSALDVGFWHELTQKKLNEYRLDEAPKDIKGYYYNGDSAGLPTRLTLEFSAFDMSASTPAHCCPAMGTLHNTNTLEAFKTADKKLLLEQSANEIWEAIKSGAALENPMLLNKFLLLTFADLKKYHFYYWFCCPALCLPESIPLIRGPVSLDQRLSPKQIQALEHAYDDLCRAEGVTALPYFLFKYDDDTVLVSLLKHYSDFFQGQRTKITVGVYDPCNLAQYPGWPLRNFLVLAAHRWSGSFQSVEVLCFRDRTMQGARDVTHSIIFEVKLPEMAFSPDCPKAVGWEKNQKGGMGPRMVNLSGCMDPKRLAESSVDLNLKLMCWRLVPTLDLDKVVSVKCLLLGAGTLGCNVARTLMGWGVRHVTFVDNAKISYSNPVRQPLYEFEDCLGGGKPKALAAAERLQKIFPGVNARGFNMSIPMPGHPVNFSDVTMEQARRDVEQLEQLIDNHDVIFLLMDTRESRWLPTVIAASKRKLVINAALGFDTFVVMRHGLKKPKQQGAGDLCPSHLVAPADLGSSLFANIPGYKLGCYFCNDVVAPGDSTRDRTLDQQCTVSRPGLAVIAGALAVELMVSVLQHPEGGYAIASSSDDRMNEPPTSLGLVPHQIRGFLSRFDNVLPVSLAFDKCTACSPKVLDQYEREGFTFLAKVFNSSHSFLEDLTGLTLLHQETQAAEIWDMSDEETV
The assay can be described thus: SPR; ATF3 immobilized on the CM5 sensor chip, ATG7 as analyte. The note with it: both partners purified. (In general: SPR reads the build-up and loss of mass on a sensor chip optically.)

B1: ATF3 immobilized on the CM5 sensor chip (natural protein)
chain: MMLQHPGQVSASEVSATAIVPCLSPPGSLVFEDFANLTPFVKEELRFAIQNKHLCHRMSSALESVTVNNRPLEMSVTKSEAAPEEDERKRRRRERNKIAAAKCRNKKKEKTECLQKESEKLESVNAELKAQIEELKNEKQHLIYMLNLHRPTCIVRAQNGRTPEDERNLFIQQIKEGTLQS
As to B1, the Kd – broadly, a measure of binding affinity in units of concentration – worked out at 963 nM.
